We go through two molecules from patent US20190284293A1 (Bristol-Myers Squibb, published 2019).

Assay [1] addresses T1, N-hCD73-his (N-terminal domain of human CD73, residues 26-336, His tag) (human, UniProt P21589 26-336).
T1 sequence: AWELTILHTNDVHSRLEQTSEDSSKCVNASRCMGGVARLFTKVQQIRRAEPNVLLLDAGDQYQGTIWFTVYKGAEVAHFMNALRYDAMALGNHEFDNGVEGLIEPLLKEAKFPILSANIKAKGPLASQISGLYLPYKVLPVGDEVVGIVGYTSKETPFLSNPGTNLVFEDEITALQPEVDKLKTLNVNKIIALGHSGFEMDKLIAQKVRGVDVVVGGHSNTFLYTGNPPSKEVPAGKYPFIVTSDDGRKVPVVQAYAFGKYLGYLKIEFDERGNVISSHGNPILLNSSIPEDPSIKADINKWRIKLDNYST
The assay can be described thus: SPR, mAb captured on protein A.

The target in assay [2] is T1, N-hCD73-his (N-terminal domain of human …). The assay is described as follows: SPR, comparison of all IgG2 molecules. On the procedure: For these experiments, protein A (Pierce) was immobilized to a density of 3000-4000 RU on flow cells 1-4 of a CM5 sensor chip (GE Healthcare) using standard ethyl(dimethylaminopropyl) carbodiimide (EDC)/N-hydroxysuccinimide […] chemistry, with ethanolamine blocking, in a running buffer of 0.01 M HEPES pH 7.4, 0.15 M NaCl, 3 mM EDTA, 0.005% v/v tween 20. […] The running buffer for the kinetic experiments was 10 mM sodium phosphate, 130 mM sodium chloride, 0.05% tween 20, pH 7.1. The surfaces were regenerated after each cycle using two 30 s pulses of 10 mM glycine pH 1.5 at a flow rate of 30 μl/min. Sensogram data was double-referenced and then fitted to a 1:1 Langmuir model using Biacore T100 evaluation software v2.0.4, to determine the association rate constant (ka), the dissociation rate constant (kd), and the equilibrium dissociation constant (KD).

Assay [3] shares this target. The assay is described as follows: SPR.

Where “and” joins values, the source holds several entries; their conditions need not be identical. Equal values may be shown once.

B1: CD73.10-IgG2-C219S-IgG1.1f (antibody)
heavy: QVQLVESGGGVVQPGRSLRLSCAASGFTFSNYGMHWVRQAPGKGLEWVAVIWYDESNKYYPDSVKGRFTISRDNSKNTLYLQMNSLRAEDTAVYYCARGGSSWYPDSFDIWGQGTMVTVSSASTKGPSVFPLAPCSRSTSESTAALGCLVKDYFPEPVTVSWNSGALTSGVHTFPAVLQSSGLYSLSSVVTVPSSNFGTQTYTCNVDHKPSNTKVDKTVERKSCVECPPCPAPPVAGPSVFLFPPKPKDTLMISRTPEVTCVVVDVSHEDPEVKFNWYVDGVEVHNAKTKPREEQYNSTYRVVSVLTVLHQDWLNGKEYKCKVSNKALPSSIEKTISKAKGQPREPQVYTLPPSREEMTKNQVSLTCLVKGFYPSDIAVEWESNGQPENNYKTTPPVLDSDGSFFLYSKLTVDKSRWQQGNVFSCSVMHEALHNHYTQKSLSLSPG
light: not shown
notes: also called CD73.10-IgG2CS-IgG1.1f; CD73.10-IgG2S-IgG1.1f
Regarding B1, in assay [1], the Kd is 5.7 nM and 6.8 nM; the koff was 0.0016 s⁻¹ and 0.0014 s⁻¹; the kon is 230000 M⁻¹ s⁻¹ and 240000 M⁻¹ s⁻¹.

B2: CD73.10-IgG2-C219S (antibody)
heavy: QVQLVESGGGVVQPGRSLRLSCAASGFTFSNYGMHWVRQAPGKGLEWVAVIWYDESNKYYPDSVKGRFTISRDNSKNTLYLQMNSLRAEDTAVYYCARGGSSWYPDSFDIWGQGTMVTVSSASTKGPSVFPLAPCSRSTSESTAALGCLVKDYFPEPVTVSWNSGALTSGVHTFPAVLQSSGLYSLSSVVTVPSSNFGTQTYTCNVDHKPSNTKVDKTVERKSCVECPPCPAPPVAGPSVFLFPPKPKDTLMISRTPEVTCVVVDVSHEDPEVQFNWYVDGVEVHNAKTKPREEQFNSTFRVVSVLTVVHQDWLNGKEYKCKVSNKGLPAPIEKTISKTKGQPREPQVYTLPPSREEMTKNQVSLTCLVKGFYPSDIAVEWESNGQPENNYKTTPPMLDSDGSFFLYSKLTVDKSRWQQGNVFSCSVMHEALHNHYTQKSLSLSPG
light: not shown
notes: also called CD73.10-IgG2CS; CD73.10-IgG2S
As to B2, the “fold lower affinity than 11F11 or CD73.4” value in assay [2] is approximately 10 fold. This molecule showed a Kd in assay [3] of approximately 5 nM. Also, in assay [1], the Kd is 6.2 nM and 8.3 nM; the koff was 0.0014 s⁻¹ and 0.0018 s⁻¹; the kon is 220000 M⁻¹ s⁻¹.
